Measurements taken from US20240391961A1 (OREGON STATE UNIVERSITY, published 2024).

T1: 14-3-3ζ nhpSer58 with a FLAG tag at its N-terminus (Homo sapiens (Human), UniProt P63104 1-245)
T1 sequence: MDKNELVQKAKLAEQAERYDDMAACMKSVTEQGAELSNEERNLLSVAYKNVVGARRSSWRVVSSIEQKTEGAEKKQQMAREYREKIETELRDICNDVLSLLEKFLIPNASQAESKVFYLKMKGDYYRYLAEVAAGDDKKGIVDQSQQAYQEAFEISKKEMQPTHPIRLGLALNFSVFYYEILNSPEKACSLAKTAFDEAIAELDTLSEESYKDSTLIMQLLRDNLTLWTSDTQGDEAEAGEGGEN


Target: the molecule itself
Test: SEC-MALS (homodimer)
Source text: 14-3-3 dimerization can be regulated by phosphorylation of a serine residue at the dimer interface, e.g., serine residue 58 (Ser58).

Row | Binder | binding result
1 | 14-3-3ζ S58E (other, also called S58E phosphomimetic; 14-3-3ζ with glutamate at residue 58) MDKNELVQKAKLAEQAERYDDMAACMKSVTEQGAELSNEERNLLSVAYKNVVGARRSEWRVVSSIEQKTEGAEKKQQMAREYREKIETELRDICNDVLSLLEKFLIPNASQAESKVFYLKMKGDYYRYLAEVAAGDDKKGIVDQSQQAYQEAFEISKKEMQPTHPIRLGLALNFSVFYYEILNSPEKACSLAKTAFDEAIAELDTLSEESYKDSTLIMQLLRDNLTLWTSDTQGDEAEAGEGGEN | binds

What follows are binders tested against T1, 14-3-3ζ nhpSer58 with a FLAG tag at its … (assay: not given).

Row | Binder | FC
2 | Transformer-2 protein homolog alpha [OS = Homo sapiens] (other, UniProt Q13595 2-282, looked up) SDVEENNFEGRESRSQSKSPTGTPARVKSESRSGSRSPSRVSKHSESHSRSRSKSRSRSRRHSHRRYTRSRSHSHSHRRRSRSRSYTPEYRRRRSRSHSPMSNRRRHTGSRANPDPNTCLGVFGLSLYTTERDLREVFSRYGPLSGVNVVYDQRTGRSRGFAFVYFERIDDSKEAMERANGMELDGRRIRVDYSITKRAHTPTPGIYMGRPTHSGGGGGGGGGGGGGGGGRRRDSYYDRGYDRGYDRYEDYDYRYRRRSPSPYYSRYRSRSRSRSYSPRRY | 0.0906 fold
3 | Pre-mRNA-splicing factor SLU7 [OS = Homo sapiens] (other, UniProt O95391 2-586, looked up) SATVVDAVNAAPLSGSKEMSLEEPKKMTREDWRKKKELEEQRKLGNAPAEVDEEGKDINPHIPQYISSVPWYIDPSKRPTLKHQRPQPEKQKQFSSSGEWYKRGVKENSIITKYRKGACENCGAMTHKKKDCFERPRRVGAKFTGTNIAPDEHVQPQLMFDYDGKRDRWNGYNPEEHMKIVEEYAKVDLAKRTLKAQKLQEELASGKLVEQANSPKHQWGEEEPNSQMEKDHNSEDEDEDKYADDIDMPGQNFDSKRRITVRNLRIREDIAKYLRNLDPNSAYYDPKTRAMRENPYANAGKNPDEVSYAGDNFVRYTGDTISMAQTQLFAWEAYDKGSEVHLQADPTKLELLYKSFKVKKEDFKEQQKESILEKYGGQEHLDAPPAELLLAQTEDYVEYSRHGTVIKGQERAVACSKYEEDVKIHNHTHIWGSYWKEGRWGYKCCHSFFKYSYCTGEAGKEIVNSEECIINEITGEESVKKPQTLMELHQEKLKEEKKKKKKKKKKHRKSSSDSDDEEKKHEKLKKALNAEEARLLHVKETMQIDERKRPYNSMYETREPTEEEMEAYRMKRQRPDDPMASFLGQ | 0.0628 fold
4 | 14-3-3 protein eta [OS = Homo sapiens] (other, UniProt Q04917 2-246, looked up) GDREQLLQRARLAEQAERYDDMASAMKAVTELNEPLSNEDRNLLSVAYKNVVGARRSSWRVISSIEQKTMADGNEKKLEKVKAYREKIEKELETVCNDVLSLLDKFLIKNCNDFQYESKVFYLKMKGDYYRYLAEVASGEKKNSVVEASEAAYKEAFEISKEQMQPTHPIRLGLALNFSVFYYEIQNAPEQACLLAKQAFDDAIAELDTLNEDSYKDSTLIMQLLRDNLTLWTSDQQDEEAGEGN | 0.0561 fold
5 | Cell division cycle 5-like protein [OS = Homo sapiens] (other, UniProt Q99459 1-802, looked up) MPRIMIKGGVWRNTEDEILKAAVMKYGKNQWSRIASLLHRKSAKQCKARWYEWLDPSIKKTEWSREEEEKLLHLAKLMPTQWRTIAPIIGRTAAQCLEHYEFLLDKAAQRDNEEETTDDPRKLKPGEIDPNPETKPARPDPIDMDEDELEMLSEARARLANTQGKKAKRKAREKQLEEARRLAALQKRRELRAAGIEIQKKRKRKRGVDYNAEIPFEKKPALGFYDTSEENYQALDADFRKLRQQDLDGELRSEKEGRDRKKDKQHLKRKKESDLPSAILQTSGVSEFTKKRSKLVLPAPQISDAELQEVVKVGQASEIARQTAEESGITNSASSTLLSEYNVTNNSVALRTPRTPASQDRILQEAQNLMALTNVDTPLKGGLNTPLHESDFSGVTPQRQVVQTPNTVLSTPFRTPSNGAEGLTPRSGTTPKPVINSTPGRTPLRDKLNINPEDGMADYSDPSYVKQMERESREHLRLGLLGLPAPKNDFEIVLPENAEKELEEREIDDTYIEDAADVDARKQAIRDAERVKEMKRMHKAVQKDLPRPSEVNETILRPLNVEPPLTDLQKSEELIKKEMITMLHYDLLHHPYEPSGNKKGKTVGFGTNNSEHITYLEHNPYEKFSKEELKKAQDVLVQEMEVVKQGMSHGELSSEAYNQVWEECYSQVLYLPGQSRYTRANLASKKDRIESLEKRLEINRGHMTTEAKRAAKMEKKMKILLGGYQSRAMGLMKQLNDLWDQIEQAHLELRTFEELKKHEDSAIPRRLECLKEDVQRQQEREKELQHRYADLLLEKETLKSKF | 0.0607 fold
6 | 14-3-3 protein gamma [OS = Homo sapiens] (other, UniProt P61981 1-247, looked up) MVDREQLVQKARLAEQAERYDDMAAAMKNVTELNEPLSNEERNLLSVAYKNVVGARRSSWRVISSIEQKTSADGNEKKIEMVRAYREKIEKELEAVCQDVLSLLDNYLIKNCSETQYESKVFYLKMKGDYYRYLAEVATGEKRATVVESSEKAYSEAHEISKEHMQPTHPIRLGLALNYSVFYYEIQNAPEQACHLAKTAFDDAIAELDTLNEDSYKDSTLIMQLLRDNLTLWTSDQQDDDGGEGNN | 0.0531 fold
7 | 2-amino-3-ketobutyrate coenzyme A ligase, mitochondrial [OS = Homo sapiens] (other, UniProt O75600 22-419, looked up) SALAQLRGILEGELEGIRGAGTWKSERVITSRQGPHIRVDGVSGGILNFCANNYLGLSSHPEVIQAGLQALEEFGAGLSSVRFICGTQSIHKNLEAKIARFHQREDAILYPSCYDANAGLFEALLTPEDAVLSDELNHASIIDGIRLCKAHKYRYRHLDMADLEAKLQEAQKHRLRLVATDGAFSMDGDIAPLQEICCLASRYGALVFMDECHATGFLGPTGRGTDELLGVMDQVTIINSTLGKALGGASGGYTTGPGPLVSLLRQRARPYLFSNSLPPAVVGCASKALDLLMGSNTIVQSMAAKTQRFRSKMEAAGFTISGASHPICPVMLGDARLASRMADDMLKRGIFVIGFSYPVVPKGKARIRVQISAVHSEEDIDRCVEAFVEVGRLHGALP | 0.0267 fold
8 | Atherin [OS = Homo sapiens] (other, UniProt Q6SPF0 1-538, looked up) MAGPPALPPPETAAAATTAAAASSSAASPHYQEWILDTIDSLRSRKARPDLERICRMVRRRHGPEPERTRAELEKLIQQRAVLRVSYKGSISYRNAARVQPPRRGATPPAPPRAPRGAPAAAAAAAPPPTPAPPPPPAPVAAAAPARAPRAAAAAATAPPSPGPAQPGPRAQRAAPLAAPPPAPAAPPAVAPPAGPRRAPPPAVAAREPPLPPPPQPPAPPQQQQPPPPQPQPPPEGGAVRAGGAARPVSLREVVRYLGGSGGAGGRLTRGRVQGLLEEEAAARGRLERTRLGALALPRGDRPGRAPPAASARPSRSKRGGEERVLEKEEEEDDDEDEDEEDDVSEGSEVPESDRPAGAQHHQLNGERGPQSAKERVKEWTPCGPHQGQDEGRGPAPGSGTRQVFSMAAMNKEGGTASVATGPDSPSPVPLPPGKPALPGADGTPFGCPPGRKEKPSDPVEWTVMDVVEYFTEAGFPEQATAFQEQEIDGKSLLLMQRTDVLTGLSIRLGPALKIYEHHIKVLQQGHFEDDDPDGFLG | 0.0524 fold
9 | 14-3-3 protein beta/alpha [OS = Homo sapiens] (other, UniProt P31946 1-246, looked up) MTMDKSELVQKAKLAEQAERYDDMAAAMKAVTEQGHELSNEERNLLSVAYKNVVGARRSSWRVISSIEQKTERNEKKQQMGKEYREKIEAELQDICNDVLELLDKYLIPNATQPESKVFYLKMKGDYFRYLSEVASGDNKQTTVSNSQQAYQEAFEISKKEMQPTHPIRLGLALNFSVFYYEILNSPEKACSLAKTAFDEAIAELDTLNEESYKDSTLIMQLLRDNLTLWTSENQGDEGDAGEGEN | 0.0486 fold
